Changes are numbered by the printed parent chain.
B1: M43-Chimeric (antibody, V domains shown)
VH: QVQLQQSGAELARPGASVNLSCKASGYTFTSYGISWVKQRTGQGLEWIGEIYPRSGNTYYNEKFKGKATLTADKSSRTAYMELRSLTSEDSAVYFCAGKDYGSTYADYWGQGTTLTVSS
VL: QIVLTQSPAIMSASPGEKVTMTCSASSSVSSRYLHWYQQKSGASPKLWIYGTSNLASGVPARFSGSGSGTSYSLTINSVEAEDAATYYCQQYHSDPLTFGAGTKLELK
B2: M1-H3/L4 (antibody, V domains shown)
VH: EVQLQQSGAEVKKPGATVKLSCTASGFNIKDEYINWVKQRPGQGLEWIGWIDPENGDTEYASKFQGRATITADTSTDTAYLELSSLRSEDTAVYYCTGGNYVGWFPYWGQGTLVTVSS
VL: QIVLTQSPATLSASPGERVTMSCSASSSVSYMHWYQQKPGTSPRRWLYDTSKLASGVPARFSGSGSGTDYTLTISSLEPEDFATYYCQQWSSNPPYTFGQGTKLEIKT
notes: also called humanized M1
B3: M1-H1/L4 (antibody, V domains shown)
VH: B2 VH with Q5V, L20I, Q43K, A68V
VL: B2 VL
notes: also called humanized M1
B4: M1-H3/L1 (antibody, V domains shown)
VH: B2 VH
VL: B2 VL with Q1E, A13L, V19A, M21L, L47I, Y70F, T84V
notes: also called humanized M1
B5: M1-Chimeric (antibody, V domains shown)
VH: EVQLQQSGAELVRPGASVKLSCTASGFNIKDEYINWVKQRPEQGLEWIGWIDPENGDTEYASKFQGKATITADTSSNTAYLQLSSLTSEDTAVYYCTGGNYVGWFPYWGQGTLVTVSA
VL: QIVLTQSPAIMSASPGEKVTMTCSASSSVSYMHWYQQKSGTSPKRWLYDTSKLASGVPARFSGSGSGTSYSLTISSMEAEDAATYYCQQWSSNPPYTFGGGTKLEIK
B6: M8-Chimeric (antibody, V domains shown)
VH: QIQLVQSGPELKKPGETVKISCKASGNTFTDYGMNWVKQSPGKGLKWMGWINTNTGEPTYADDFKGRFAFSLETSASTAYLQINNLKNEDMATYFCAHYSFDYWGQGTTLTVSS
VL: DIQMTQSPASLSVSVGQTVTITCRTSENIYSNLAWYQQKPGKSPQLLVYAATNLADGVPSRFSGSGSGTQYSLKINSLQSEDFGSYYCQHFWGTPWTFGGGTKLEIK
B7: M8-H3/L2B10 (antibody)
heavy: not shown
light: DIQMTQSPSSLSASVGDTVTITCRTSENIYSNLAWYQQKPGKSPQLLVYAATNLADGVPSRFSGSGSGTDYTLTISSLQPEDFGTYYCQHFWGTPWTFGGGTKVEIKTVAAPSVFIFPPSDEQLKSGTASVVCLLNNFYPREAKVQWKVDNALQSGNSQESVTEQDSKDSTYSLSSTLTLSKADYEKHKVYACEVTHQGLSSPVTKSFNRGEC
notes: also called humanized M8
B8: M8-H3/L2B2 (antibody, V domains shown)
VH: QIQLVQSGSELKKPGASVKISCKASGTTFTDYGMNWVKQSPGKGLKWMGWINTNTGEPTYAEDFKGRFVFSLDTSVSTAYLQISSLKAEDTATYFCAHYSFDYWGQGTLLTVSS
VL: DIQMTQSPSSLSASVGDTVTITCRTSENIYSNLAWYQQKPGKSPQLLVYAATNLADGVPSRFSGSGSGTQYTLKISSLQPEDFATYYCQHFWGTPWTFGGGTKVEIKT
notes: also called humanized M8
B9: M8-H3/L2B5 (antibody)
heavy: not shown
light: B7 light with T18R
notes: also called humanized M8

Target: T1, histidine-tagged human uPAR (Sino#10925-H08H) (human, UniProt Q03405 23-303)
T1 construct: also called uPAR-His
Experiment: BLI (Octet), antibody on anti-human Fc sensor, uPAR from 50 nM;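 also: antibodies captured at 10 µg/mL on anti-human Fc biosensors, with uPAR as analyte in a twofold dilution series from 50 nM downward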
Procedure: Binding affinity analysis was carried out using the Octet platform as described above. Briefly, uPAR antibodies were immobilized via an Anti-human Fc (AHC) sensor. Each uPAR antibody was tested at a concentration of 10 μg/mL. The load was histidine-tagged human uPAR provided over a titration starting at 50 nM with subsequent 2-fold dilutions.

Row | Kd [nM] | koff [s⁻¹] | kon [M⁻¹ s⁻¹] | Binder
1 | 15.1 | 0.00606 | 402000 | B1
2 | 1.3 | 0.000893 | 686000 | B2
3 | 1.48 | 0.000986 | 665000 | B3
4 | 1.64 | 0.00111 | 677000 | B4
5 | 1.11 | 0.000701 | 629000 | B5
6 | 1.79 | 0.00049 | 273000 | B6
7 | 2.35 | 0.000477 | 203000 | B7
8 | 1.74 | 0.000427 | 246000 | B8
9 | 1.65 | 0.000351 | 213000 | B9

Source: patent US20220340678A1 (MURAL ONCOLOGY, published 2022)
